# Experimental data reported in the supplement of paper PMC7877785.
# ± gives the uncertainty stated by the source.
# Assay: self-splicing fitness, log relative to wild type (ln ratio); higher = more splicing; Tetrahymena group I intron in knt gene, E. coli kanamycin selection, DiMSum; sequences stand for … in CUCUCU…GGAGGGAAAAGUUAUCAGGCAUGCACCUGGUAGCUAGUCUUUAAACCAAUAGAUUGCAUCGGUUUAAAAGGCAAGACCGUCAAAUUGCGGGAAAGGGGUCAACAGCCGUUCAGUACCAAGUCUCAGGGGAAACUUUGAGAUGGCCUUGCAAAGGGUAUGGUAAUAAGCUGACGGACAUGGUCCUAACCACGCAGCCAAGUCCUAAGUCAACAGAUCUUCUGUUGAUAUGGAUGCAGUUCACAGACUAAAUGUCGGUCGGGGAAGAUGUAUUCUUCUCAUAAGAUAUAGUCGGACCUCUCCUUAAUGGGAGCUAGCGGAUGAAGUGAUGCAACACUGGAGCCGCUGGGAACUAAUUUGUAUGCGAAAGUAUAUUGAUUAGUUUUGGAGUACUCGUGGUCG
# Method in brief: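 Colonies from six replicate transformations of E. coli BL21(DE3) were pooled and amplicon-sequenced on an Illumina HiSeq 2500. The library placed an intron with all eight P1ex-region nucleotides randomised inside the knt kanamycin-resistance gene on pET-22b(+), and cells grew overnight at 37°C or 30°C on LB agar with or without 25 μg/mL kanamycin (plus 100 μg/mL carbenicillin, 50 μM IPTG, 0.2% rhamnose). Fitness is the DiMSum error-weighted combination of wild-type-normalised replicate fold changes, kanamycin versus none.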
Sequence,self-splicing fitness (ln) (30 °C),self-splicing fitness (ln) (37 °C)
AAAAAGCAAUAUUACGAGAC,-3.02 ± 0.19,-2.47 ± 0.24
AAAAAGCAAUAUUACGAGGU,-4.25 ± 0.29,-3.5 ± 0.23
AAAAAGCAAUAUUACGAUAA,-1.03 ± 0.074,-1.1 ± 0.093
AAAAAGCAAUAUUACGCGGU,-2.38 ± 0.13,-0.538 ± 0.11
AAAAAGCAAUAUUACGCUGA,-4.19 ± 0.34,-1.7 ± 0.17
AAAAAGCAAUAUUACGCUGC,-3.34 ± 0.4,–
AAAAAGCAAUAUUACGGAAG,-2.88 ± 0.16,-1.38 ± 0.14
AAAAAGCAAUAUUACGGCAC,-0.499 ± 0.076,-0.593 ± 0.1
AAAAAGCAAUAUUACGGCCG,-0.279 ± 0.092,0.159 ± 0.13
AAAAAGCAAUAUUACGGCUA,-0.166 ± 0.089,0.116 ± 0.11
AAAAAGCAAUAUUACGGGGC,-3.33 ± 0.16,-2.43 ± 0.18
AAAAAGCAAUAUUACGGGUC,-3.39 ± 0.16,-2.7 ± 0.26
AAAAAGCAAUAUUACGGUAU,-2.2 ± 0.08,-0.966 ± 0.08
AAAAAGCAAUAUUACGGUCU,-0.167 ± 0.057,-0.0164 ± 0.073
AAAAAGCAAUAUUACGGUUU,-0.478 ± 0.05,-0.225 ± 0.064
AAAAAGCAAUAUUACGUCAU,-2.2 ± 0.08,-1.14 ± 0.092
AAAAAGCAAUAUUACGUCCG,-1.05 ± 0.11,-0.195 ± 0.13
AAACAGCAAUAUUACGAAAU,-2.72 ± 0.13,-1.48 ± 0.13
AAACAGCAAUAUUACGAACU,-0.252 ± 0.065,-0.265 ± 0.077
AAACAGCAAUAUUACGAAGU,-3.41 ± 0.2,-2.21 ± 0.17
AAACAGCAAUAUUACGAAUA,-2.67 ± 0.14,-1.1 ± 0.084
AAACAGCAAUAUUACGACAG,-1.5 ± 0.082,-1.25 ± 0.1
AAACAGCAAUAUUACGACCU,-0.0846 ± 0.062,-0.604 ± 0.076
AAACAGCAAUAUUACGAUAU,-1.82 ± 0.08,-0.63 ± 0.097
AAACAGCAAUAUUACGCAAU,-2.97 ± 0.081,-1.4 ± 0.076
AAACAGCAAUAUUACGGACA,-1.54 ± 0.092,-1.1 ± 0.096

Sequence,self-splicing fitness (ln) (30 °C),self-splicing fitness (ln) (37 °C)
AAACAGCAAUAUUACGGAGC,-3.7 ± 0.28,-2.75 ± 0.22
AAACAGCAAUAUUACGGCGA,-0.923 ± 0.074,-0.737 ± 0.085
AAACAGCAAUAUUACGGCUG,-3.47 ± 0.25,-2.07 ± 0.23
AAACAGCAAUAUUACGGGUA,-2.58 ± 0.093,-1.31 ± 0.072
AAACAGCAAUAUUACGUAAU,-1.79 ± 0.051,-0.491 ± 0.064
AAACAGCAAUAUUACGUACC,-1.52 ± 0.11,-0.543 ± 0.12
AAACAGCAAUAUUACGUACU,-0.273 ± 0.06,-0.159 ± 0.073
AAACAGCAAUAUUACGUGGC,-3.05 ± 0.2,-2.35 ± 0.14
AAAGAGCAAUAUUACGACCA,-1.98 ± 0.18,–
AAAGAGCAAUAUUACGAGCG,-2.08 ± 0.21,-2.17 ± 0.24
AAAGAGCAAUAUUACGAGGA,-2.26 ± 0.31,-2.6 ± 0.27
AAAGAGCAAUAUUACGAGUA,-3.87 ± 0.46,-2.58 ± 0.28
AAAGAGCAAUAUUACGAGUU,-3 ± 0.17,-1.92 ± 0.2
AAAGAGCAAUAUUACGAUAC,–,-2.18 ± 0.41
AAAGAGCAAUAUUACGCCAC,-3.45 ± 0.49,-2.83 ± 0.47
AAAGAGCAAUAUUACGCGAA,-2.83 ± 0.2,-1.46 ± 0.24
AAAGAGCAAUAUUACGCGGG,-4.16 ± 0.28,-3.54 ± 0.33
AAAGAGCAAUAUUACGCUCG,-2.17 ± 0.12,-0.963 ± 0.12
AAAGAGCAAUAUUACGGCUU,-1.05 ± 0.11,-0.397 ± 0.14
AAAGAGCAAUAUUACGGUAU,-3.02 ± 0.17,-2.28 ± 0.15
AAAGAGCAAUAUUACGUAAG,-3.48 ± 0.18,-2.57 ± 0.22
AAAGAGCAAUAUUACGUACC,-3.04 ± 0.19,-2.03 ± 0.28
AAAGAGCAAUAUUACGUCUU,-2.22 ± 0.091,-1.41 ± 0.1
AAAGAGCAAUAUUACGUUUG,-2.74 ± 0.21,-1.77 ± 0.22
AAAUAGCAAUAUUACGAAUA,-1.7 ± 0.16,-1.18 ± 0.15
AAAUAGCAAUAUUACGAAUU,-1.65 ± 0.1,-0.368 ± 0.12

Sequence,self-splicing fitness (ln) (30 °C),self-splicing fitness (ln) (37 °C)
AAAUAGCAAUAUUACGACGG,-0.995 ± 0.1,-0.783 ± 0.16
AAAUAGCAAUAUUACGAGUC,-3.89 ± 0.33,-2.2 ± 0.36
AAAUAGCAAUAUUACGAUUG,-2.16 ± 0.15,-1.31 ± 0.18
AAAUAGCAAUAUUACGCACG,-1.59 ± 0.13,-0.271 ± 0.12
AAAUAGCAAUAUUACGCAGG,-1.68 ± 0.12,-1.65 ± 0.11
AAAUAGCAAUAUUACGCAUC,-3.65 ± 0.47,-0.111 ± 0.22
AAAUAGCAAUAUUACGCCGA,-2.41 ± 0.19,-0.837 ± 0.17
AAAUAGCAAUAUUACGCGGG,-3.02 ± 0.19,-1.23 ± 0.12
AAAUAGCAAUAUUACGGAGA,-1.86 ± 0.23,-2.11 ± 0.3
AAAUAGCAAUAUUACGGAUC,-1.18 ± 0.11,-0.569 ± 0.15
AAAUAGCAAUAUUACGGAUG,-2.5 ± 0.16,-0.984 ± 0.12
AAAUAGCAAUAUUACGGCAA,-0.542 ± 0.071,0.146 ± 0.075
AAAUAGCAAUAUUACGGCCA,-0.522 ± 0.15,-0.523 ± 0.18
AAAUAGCAAUAUUACGGGAU,-2.7 ± 0.099,-1.03 ± 0.11
AAAUAGCAAUAUUACGGGGA,-3.71 ± 0.25,-2.86 ± 0.19
AAAUAGCAAUAUUACGGGGC,-3.72 ± 0.32,-2.34 ± 0.29
AAAUAGCAAUAUUACGGGUG,-1.49 ± 0.11,-1.65 ± 0.14
AAAUAGCAAUAUUACGGUGA,-1.69 ± 0.13,-0.521 ± 0.11
AAAUAGCAAUAUUACGUAGU,-3.11 ± 0.099,-1.79 ± 0.095
AAAUAGCAAUAUUACGUAUA,-1.63 ± 0.12,-0.558 ± 0.12
AAAUAGCAAUAUUACGUGGC,-4.1 ± 0.28,-1.43 ± 0.2
AAAUAGCAAUAUUACGUUUG,-2.04 ± 0.1,-1.49 ± 0.11
AACAAGCAAUAUUACGAAUA,-1.97 ± 0.1,-1.24 ± 0.11
AACAAGCAAUAUUACGACCG,-0.711 ± 0.12,0.209 ± 0.16
AACAAGCAAUAUUACGACCU,0.219 ± 0.086,0.125 ± 0.1
